Results published in article PMC10627149 (Nature structural & molecular biology, 2023).

Molecular target: T1, TSEN2 Y369A/H377A/K416A (endonuclease triple mutant in pCDNA3.1-TSEN2-Flag) (human, UniProt Q8NCE0 1-465, Y369A | H377A | K416A)
T1 sequence: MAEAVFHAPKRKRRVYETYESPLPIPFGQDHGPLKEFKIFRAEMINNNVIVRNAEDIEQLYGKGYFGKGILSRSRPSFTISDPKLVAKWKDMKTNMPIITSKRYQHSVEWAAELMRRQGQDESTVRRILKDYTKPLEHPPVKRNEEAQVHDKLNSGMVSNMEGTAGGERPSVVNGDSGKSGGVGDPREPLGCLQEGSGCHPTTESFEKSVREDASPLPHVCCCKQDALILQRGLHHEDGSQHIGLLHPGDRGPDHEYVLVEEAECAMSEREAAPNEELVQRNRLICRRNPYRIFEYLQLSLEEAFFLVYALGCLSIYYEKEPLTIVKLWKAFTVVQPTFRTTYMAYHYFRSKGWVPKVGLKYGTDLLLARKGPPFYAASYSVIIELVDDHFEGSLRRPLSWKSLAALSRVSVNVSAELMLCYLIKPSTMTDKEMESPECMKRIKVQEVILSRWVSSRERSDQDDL
Assay: cryo-EM structure

B1: TSEN15-Flag (pCDNA3.1-TSEN15-Flag) (natural protein, human)
chain: MEERGDSEPTPGCSGLGPGGVRGFGDGGGAPSWAPEDAWMGTHPKYLEMMELDIGDATQVYVAFLVYLDLMESKSWHEVNCVGLPELQLICLVGTEIEGEGLQTVVPTPITASLSHNRIREILKASRKLQGDPDLPMSFTLAIVESDSTIVYYKLTDGFMLPDPQNISLRR
  binding result: binds
